Measurements: patent US20240368285A1 (HEFEI TG IMMUNOPHARMA, published 2024)

Assays:
[1] = biological target: T1, MICA005α3-Fc (human); test: ELISA on coated MICA*005 α3-Fc (1 µg/ml), HRP anti-human Fab secondary, OD450
T1 construct: also called MICA*005-Fc; domain α3 of MICA-005 Fc fusion protein
Protocol: (§1) After the antibodies were added, signal intensity was used for judging the binding characteristics of the antibodies and MICA and MICB.
(§2) The fusion proteins (produced in the Applicant's laboratory; an amino acid sequence of MICA002α3-Fc is as set forth in SEQ ID NO: 22; an amino acid sequence of MICA005α3-Fc is as set forth in SEQ ID NO: 24; an amino acid sequence of MICA008α3-Fc is as set forth in SEQ ID NO: 25; an amino acid sequence of MICA004α3-Fc is as set forth in SEQ ID NO: 23; an amino acid sequence of MICB001α3-Fc is as set forth in SEQ ID NO: 26; and an amino acid sequence of MICB005α3-Fc is as set forth in SEQ ID NO: 27) were diluted to a concentration of 1 μg/ml with PBS and then added into a 96-well plate in a volume of 100 μl/well. The plate was placed at 4° C. overnight. The PBS in the 96-well plate was removed by sucking. After the plate was washed with PBST (that is, PBS having a pH value of 7.2 included 0.1 volume % of Tween 20) for 6 times, PBS containing 10% of BSA was added in a volume of 200 μl/well. The plate was incubated at 37° C. for 2 hours for blocking. The blocking solution was removed. […]

[2] = biological target: T2, MICA004α3-Fc (human); test: ELISA on coated MICA*004 α3-Fc (1 µg/ml), HRP anti-human Fab secondary, OD450
T2 construct: also called MICA*004-Fc; domain α3 of MICA-004 Fc fusion protein
T2 sequence (chain, as listed by the source limits assumed): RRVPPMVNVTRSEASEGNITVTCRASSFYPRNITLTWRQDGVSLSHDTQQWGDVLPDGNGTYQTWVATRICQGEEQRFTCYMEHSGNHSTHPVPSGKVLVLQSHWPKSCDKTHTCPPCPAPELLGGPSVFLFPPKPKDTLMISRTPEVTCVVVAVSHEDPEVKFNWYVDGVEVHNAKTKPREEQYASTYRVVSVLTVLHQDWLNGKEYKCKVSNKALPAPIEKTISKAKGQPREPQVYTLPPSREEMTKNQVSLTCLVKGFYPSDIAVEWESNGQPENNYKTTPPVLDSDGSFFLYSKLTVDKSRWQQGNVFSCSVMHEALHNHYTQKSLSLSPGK

[3] = biological target: T3, MICB001α3-Fc; test: ELISA on coated MICB*001 α3-Fc (1 µg/ml), HRP anti-human Fab secondary, OD450
T3 construct: also called MICB*001-Fc; domain α3 of MICB-001 Fc fusion protein
T3 sequence (chain, as listed by the source limits assumed): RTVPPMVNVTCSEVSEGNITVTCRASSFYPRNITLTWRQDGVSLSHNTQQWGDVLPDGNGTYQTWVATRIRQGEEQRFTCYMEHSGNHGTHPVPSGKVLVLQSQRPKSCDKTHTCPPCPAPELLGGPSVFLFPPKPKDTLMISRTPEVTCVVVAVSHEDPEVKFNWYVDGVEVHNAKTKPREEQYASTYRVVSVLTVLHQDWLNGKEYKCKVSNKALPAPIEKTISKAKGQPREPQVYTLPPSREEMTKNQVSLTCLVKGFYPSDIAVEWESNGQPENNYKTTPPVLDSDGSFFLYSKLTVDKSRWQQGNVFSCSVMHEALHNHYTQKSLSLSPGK

[4] = biological target: T4, MICA on human tumor cells (A-375, A549, HCT-15, MDA-MB-231) (human, UniProt Q29983 24-383); test: flow cytometry on HCT-15 cells, Alexa-647 goat anti-human secondary, average fluorescence intensity
T4 construct: whole, on cells
T4 sequence (looked up): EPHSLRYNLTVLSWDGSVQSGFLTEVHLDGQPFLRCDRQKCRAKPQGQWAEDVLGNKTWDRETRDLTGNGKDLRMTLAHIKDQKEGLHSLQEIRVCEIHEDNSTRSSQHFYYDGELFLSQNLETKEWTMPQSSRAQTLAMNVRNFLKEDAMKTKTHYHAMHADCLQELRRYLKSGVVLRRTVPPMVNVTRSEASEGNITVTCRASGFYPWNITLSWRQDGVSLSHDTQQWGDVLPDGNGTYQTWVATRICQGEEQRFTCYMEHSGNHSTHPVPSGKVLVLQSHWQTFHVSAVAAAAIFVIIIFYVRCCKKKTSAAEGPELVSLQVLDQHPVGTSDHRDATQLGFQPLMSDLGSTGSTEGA
Protocol: (1) Tumor cells were diluted to a density of 2×10⁶/mL with PBS and then added into a 1.5 ml EP tube in a volume of 100 l/tube. 10 l/tube of goat serum was added into the EP tube; and blocking was conducted at 4° C. for 30 min. Antibody h5A1 (having a heavy chain sequence as set forth in SEQ ID NO: 11 and a light chain sequence as set forth in SEQ ID NO: 12), antibody h5A1002 (having a heavy chain sequence as set forth in SEQ ID NO: 13 and a light chain sequence as set forth in SEQ ID NO: 14), and control IgG1 (purchased from Biointron) were gradient-diluted (at a highest working concentration of 50 μg/ml, 10 gradients, diluted by 3 times for each gradient) and added. The tube was incubated at 4° C. for 30 min. 1 mL of PBS was added into the EP tube, and centrifugation was conducted 4° C. at a rate of 3,500 rpm for 5 min. The supernatant was removed. The EP tube was washed once with the PBS. The supernatant was removed after centrifugation. The cells were resuspended with PBS in a volume of 100 l/tube. An Alexa-647 labeled goat anti-human secondary antibody (purchased from Jackson lab) was added into the tube in a volume of 1 l/tube; and the plate was incubated in the dark at 4° C. for 30 min. The tube was washed twice with PBS, and the supernatant was removed after centrifugation. […]

[5] = biological target: T5, MICA002α3-Fc (human); test: ELISA on coated MICA*002 α3-Fc (1 µg/ml), HRP anti-human Fab secondary, OD450
T5 construct: Produced in the Applicant's laboratory; also called MICA*002-Fc; domain α3 of MICA-002 Fc fusion protein
T5 sequence (chain, as listed by the source limits assumed): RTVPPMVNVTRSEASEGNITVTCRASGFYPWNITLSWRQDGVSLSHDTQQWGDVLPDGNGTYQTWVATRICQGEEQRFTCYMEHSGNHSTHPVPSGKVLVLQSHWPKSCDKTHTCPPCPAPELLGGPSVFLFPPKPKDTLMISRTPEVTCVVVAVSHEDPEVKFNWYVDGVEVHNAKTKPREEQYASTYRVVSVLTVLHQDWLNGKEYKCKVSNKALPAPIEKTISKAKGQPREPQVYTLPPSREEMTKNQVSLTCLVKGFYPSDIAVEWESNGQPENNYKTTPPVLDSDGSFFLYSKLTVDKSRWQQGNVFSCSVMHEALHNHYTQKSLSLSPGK

[6] = biological target: T6, MICA008α3-Fc (human); test: ELISA on coated MICA*008 α3-Fc (1 µg/ml), HRP anti-human Fab secondary, OD450
T6 construct: also called MICA*008-Fc; domain α3 of MICA-008 Fc fusion protein
T6 sequence (chain, as listed by the source limits assumed): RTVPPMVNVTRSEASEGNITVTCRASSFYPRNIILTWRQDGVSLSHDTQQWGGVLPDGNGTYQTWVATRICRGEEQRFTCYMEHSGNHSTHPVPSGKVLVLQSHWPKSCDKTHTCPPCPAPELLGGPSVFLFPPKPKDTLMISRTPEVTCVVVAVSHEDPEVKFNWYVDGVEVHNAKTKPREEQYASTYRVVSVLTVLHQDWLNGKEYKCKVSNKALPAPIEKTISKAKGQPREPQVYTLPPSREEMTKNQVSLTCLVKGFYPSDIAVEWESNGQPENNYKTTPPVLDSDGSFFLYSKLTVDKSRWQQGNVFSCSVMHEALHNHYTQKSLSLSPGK
Protocol: as §1, §2

[7] = biological target: T7, MICB005α3-Fc; test: ELISA on coated MICB*005 α3-Fc (1 µg/ml), HRP anti-human Fab secondary, OD450
T7 construct: also called MICB*005-Fc; domain α3 of MICB-005 Fc fusion protein
T7 sequence (chain, as listed by the source limits assumed): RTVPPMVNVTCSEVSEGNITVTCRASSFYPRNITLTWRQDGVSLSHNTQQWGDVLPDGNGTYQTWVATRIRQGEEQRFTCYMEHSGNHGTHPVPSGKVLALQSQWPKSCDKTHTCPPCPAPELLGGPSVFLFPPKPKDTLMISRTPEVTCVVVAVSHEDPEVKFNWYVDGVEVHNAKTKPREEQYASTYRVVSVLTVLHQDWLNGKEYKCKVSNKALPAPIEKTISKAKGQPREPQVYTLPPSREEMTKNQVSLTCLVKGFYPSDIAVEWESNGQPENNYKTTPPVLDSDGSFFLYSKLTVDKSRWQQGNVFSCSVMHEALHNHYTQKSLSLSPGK
Protocol: as §1, §2

T1 sequence (chain, as listed by the source limits assumed): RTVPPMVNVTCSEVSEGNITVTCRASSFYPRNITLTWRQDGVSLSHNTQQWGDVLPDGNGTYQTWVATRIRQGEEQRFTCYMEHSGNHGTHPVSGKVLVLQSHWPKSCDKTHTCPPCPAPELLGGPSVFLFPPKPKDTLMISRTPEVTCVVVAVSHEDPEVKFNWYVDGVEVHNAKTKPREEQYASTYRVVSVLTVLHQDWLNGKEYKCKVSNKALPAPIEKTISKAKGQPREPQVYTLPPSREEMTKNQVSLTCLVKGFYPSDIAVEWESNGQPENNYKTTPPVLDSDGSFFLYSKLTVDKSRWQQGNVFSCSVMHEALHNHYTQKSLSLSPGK

EC50 (read off the curve) [1]: ~70 ng/mL | EC50 (read off the curve) [2]: ~0.04 µg/mL | EC50 (read off the curve) [3]: ~0.03 µg/mL | EC50 (read off the curve) [4]: ~1 µg/mL | EC50 (read off the curve) [5]: ~0.04 µg/mL | EC50 (read off the curve) [6]: ~80 ng/mL | EC50 (read off the curve) [7]: ~50 ng/mL
B1: affinity maturation antibody h5A1002 (antibody, V domains shown)
VH: QVQLQESGPGLVKPSETLSLTCTVSGFSLTTYGGHWIRQPPGKGLEWIGMIWTDGWTDYNAAFISRVTISVDTSKNQFSLKLSSVTAADTAVYYCARKGHGYYYAMDYWGQGTLVTVSS
VL: EIVLTQSPGTLSLSPGERATLSCTASSSVSSSYLHWYQQKPGQAPRLLIYSTSNLISGIPDRFSGSGSGTDFTLTISRLEPEDFAVYYCHQYHRSPFTFGQGTKLEIKR
notes: Human IgG1, kappa; also called h5A1002-hIgG1
